# Measurements published in patent publication US20230365640A1.
# Where “and” joins values, the source holds several entries; their conditions need not be identical. Identical values can stand only once.
# B1: DC-SIGN.Fc protein, Q9NNX6 59-404 (Fc fusion)
# chain: QVSKVPSSISQEQSRQDAIYQNLTQLKAAVGELSEKSKLQEIYQELTQLKAAVGELPEKSKLQEIYQELTRLKAAVGELPEKSKLQEIYQELTWLKAAVGELPEKSKMQEIYQELTRLKAAVGELPEKSKQQEIYQELTRLKAAVGELPEKSKQQEIYQELTRLKAAVGELPEKSKQQEIYQELTQLKAAVERLCHPCPWEWTFFQGNCYFMSNSQRNWHDSITACKEVGAQLVVIKSAEEQNFLQLQSSRSNRFTWMGLSDLNQEGTWQWVDGSPLLPSFKQYWNRGEPNNVGEEDCAEFSGNGWNDDKCNLAKFWICKKSAASCSRDEEQFLSPAPATPNPPPA
# Biological target: recombinant SARS-CoV-2 RBD (His-tagged SARS-CoV-2 RBD fusion protein) (SARS-CoV-2), P0DTC2
# Details: remark: other sources report otherwise
binder,measurement,value
B1,Kd,18.7 µM and 16.1 µM
same,koff,0.000588 s⁻¹ and 0.000614 s⁻¹
same,kon,339 M⁻¹ s⁻¹
